According to patent US20230357429A1 (JANUX THERAPEUTICS, published 2023):
Where two headings read alike, the source gives them in different places.

Legend:
[1] = target: T1, Human TROP2 ECD (31-274 AA), biotinylated (human, UniProt P09758 31-274, biotinylated (site not stated)); experiment: ELISA on immobilized TROP2
T1 construct: also called tumor-associated calcium signal transducer 2; Human TROP2-biotin
T1 sequence: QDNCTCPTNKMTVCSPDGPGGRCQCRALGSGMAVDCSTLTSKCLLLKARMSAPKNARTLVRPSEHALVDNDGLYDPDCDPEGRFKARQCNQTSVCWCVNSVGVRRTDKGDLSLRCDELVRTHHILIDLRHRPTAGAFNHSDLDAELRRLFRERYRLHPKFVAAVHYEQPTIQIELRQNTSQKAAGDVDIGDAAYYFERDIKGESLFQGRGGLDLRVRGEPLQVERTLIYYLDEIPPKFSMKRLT

[2] = target: T1, Human TROP2 ECD (31-274 AA), …; experiment: ELISA on immobilized TROP2; remark: listed apart in the source
[3] = target: T1, Human TROP2 ECD (31-274 AA), …; experiment: ELISA on immobilized TROP2; remark: listed apart in the source
[4] = target: T2, TBD-1 wt; experiment: competition ELISA: peptide titrated and pre-incubated with a constant concentration of TBD-1, then added to plate-bound biotinylated TROP2; blocked ligand TROP2 (2.m7)
T2 construct: Fab; the heavy chain entry is VH-CH1; also called wild-type anti-TROP2 Fab (hRS7); TROP2 Fab

[5] = target: T3, Cyno TROP2 Full length (cynomolgus monkey, UniProt P09758 31-323 (human entry)); experiment: cell-based or functional assay
T3 chain: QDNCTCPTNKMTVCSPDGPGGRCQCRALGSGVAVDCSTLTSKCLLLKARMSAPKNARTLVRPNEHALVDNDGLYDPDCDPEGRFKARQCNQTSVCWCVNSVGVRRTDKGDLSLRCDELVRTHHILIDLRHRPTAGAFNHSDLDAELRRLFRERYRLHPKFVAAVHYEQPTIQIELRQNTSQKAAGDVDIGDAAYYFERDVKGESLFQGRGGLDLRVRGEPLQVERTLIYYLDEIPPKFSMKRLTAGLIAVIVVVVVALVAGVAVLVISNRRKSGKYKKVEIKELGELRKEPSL

[6] = target: T4, Human TROP2 Full length (human, UniProt P09758 31-323); experiment: cell-based or functional assay
T4 sequence: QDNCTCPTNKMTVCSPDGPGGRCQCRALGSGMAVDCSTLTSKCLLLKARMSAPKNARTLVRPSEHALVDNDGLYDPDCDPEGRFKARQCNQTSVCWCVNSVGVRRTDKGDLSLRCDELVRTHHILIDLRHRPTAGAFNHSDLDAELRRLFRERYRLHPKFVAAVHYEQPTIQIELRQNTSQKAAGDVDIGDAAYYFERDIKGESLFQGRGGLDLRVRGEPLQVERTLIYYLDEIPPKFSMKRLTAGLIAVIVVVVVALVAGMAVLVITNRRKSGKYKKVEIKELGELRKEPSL

[7] = target: T1, Human TROP2 ECD (31-274 AA), …; experiment: ELISA on immobilized TROP2; remark: listed apart in the source
[8] = target: T1, Human TROP2 ECD (31-274 AA), …; experiment: ELISA on immobilized TROP2; remark: listed apart in the source
[9] = target: T5, CD3 (biotinylated CD3 antigen) (human, UniProt P07766 23-126, limits assumed, biotinylated (site not stated)); experiment: ELISA: biotinylated CD3 captured on neutravidin plates, TCE titrated, HRP secondary antibody
T5 construct: also called CD3ε; human CD3

[10] = target: T1, Human TROP2 ECD (31-274 AA), …; experiment: ELISA on immobilized TROP2; remark: listed apart in the source
[11] = target: T1, Human TROP2 ECD (31-274 AA), …; experiment: ELISA on immobilized TROP2; remark: listed apart in the source
[12] = target: T3, Cyno TROP2 Full length; experiment: cell-based or functional assay
[13] = target: T4, Human TROP2 Full length; experiment: cell-based or functional assay; remark: listed apart in the source

B1: TCE-5 (bispecific antibody)
light: not shown
heavy: QVQLQQSGSELKKPGASVKVSCKASGYTFTNYGMNWVKQAPGQGLKWMGWINTYTGEPTYTDDFKGRFAFSLDTSVSTAYLQISSLKADDTAVYFCARGGFGSSYWYFAVWGQGSLVTVSSASTKGPSVFPLAPSSKSTSGGTAALGCLVKDYFPEPVTVSWNSGALTSGVHTFPAVLQSSGLYSLSSVVTVPSSSLGTQTYICNVNHKPSNTKVDKKVEPKSC
EC50 [1]: 20.9 nM | EC50 [2]: 1.43 nM | EC50 [3]: 0.59 nM

VDFCYLYNWPVCSK [Peptide-9]
binding result [4]: binds

LDFCKLYQWPVCFT [Peptide-15]
binding result [4]: binds

VDFCALYNWPVCET [Peptide-11]
binding result [4]: binds

B2: PC-17 (bispecific antibody)
light: not shown
heavy: GGIDFCAIYQWPVCRSGGGGSGGLSGRSDAGSPLGLAGSGGSQVQLQQSGSELKKPGASVKVSCKASGYTFTNYGMNWVKQAPGQGLKWMGWINTYTGEPTYTDDFKGRFAFSLDTSVSTAYLQISSLKADDTAVYFCARGGFGSSYWYFAVWGQGSLVTVSSASTKGPSVFPLAPSSKSTSGGTAALGCLVKDYFPEPVTVSWNSGALTSGVHTFPAVLQSSGLYSLSSVVTVPSSSLGTQTYICNVNHKPSNTKVDKKVEPKSC
notes: anti-TROP2 D109A
EC50 [1]: 926 nM

B3: PC-27 (bispecific antibody)
light: not shown
heavy: GGVDFCAIYSWPICKIGGGGSGGLSGRSDAGSPLGLAGSGGSQVQLQQSGSELKKPGASVKVSCKASGYTFTNYGMNWVKQAPGQGLKWMGWINTYTGEPTYTDDFKGRFAFSLDTSVSTAYLQISSLKADDTAVYFCARGGFGSSYWYFAVWGQGSLVTVSSASTKGPSVFPLAPSSKSTSGGTAALGCLVKDYFPEPVTVSWNSGALTSGVHTFPAVLQSSGLYSLSSVVTVPSSSLGTQTYICNVNHKPSNTKVDKKVEPKSC
notes: anti-TROP2 D109A
EC50 [3]: 214 nM

B4: PC-21 (bispecific antibody)
light: not shown
heavy: GGVDFCALYHWPICYQGGGGSGGLSGRSDAGSPLGLAGSGGSQVQLQQSGSELKKPGASVKVSCKASGYTFTNYGMNWVKQAPGQGLKWMGWINTYTGEPTYTDDFKGRFAFSLDTSVSTAYLQISSLKADDTAVYFCARGGFGSSYWYFAVWGQGSLVTVSSASTKGPSVFPLAPSSKSTSGGTAALGCLVKDYFPEPVTVSWNSGALTSGVHTFPAVLQSSGLYSLSSVVTVPSSSLGTQTYICNVNHKPSNTKVDKKVEPKSC
notes: anti-TROP2 D109A
EC50 [3]: 168 nM

B5: TCE-7 (bispecific antibody)
light: DIQLTQSPSSLSASVGDRVSITCKASQDVSIAVAWYQQKPGKAPKLLIYSASYRYTGVPDRFSGSGSGTDFTLTISSLQPEDFAVYYCQQHYITPLTFGAGTKVEIKRTVAAPSVFIFPPSDEQLKSGTASVVCLLNNFYPREAKVQWKVDNALQSGNSQESVTEQDSKDSTYSLSSTLTLSKADYEKHKVYACEVTHQGLSSPVTKSFNRGEC
heavy: not shown
CyTROP2 HEK293 EC50 (pM) [5]: 0.11 pM | HCT116 Cytotoxicity EC50 (pM) [6]: 113 pM

B6: TCE-48 (bispecific antibody)
light: DIQLTQSPSSLSASVGDRVSITCKASQDVSIAVAWYQQKPGKAPKLLIYSASYRYTGVPDRFSGSGSGTDFTLTISSLQPEDFAVYYCQQHYITPLTFGAGTKVEIKRTVAAPSVFIFPPSDEQLKSGTASVVCLLNNFYPREAKVQWKVDNALQSGNSQESVTEQDSKDSTYSLSSTLTLSKADYEKHKVYACEVTHQGLSSPVTKSFNRGEC
heavy: not shown
CyTROP2 HEK293 EC50 (pM) [5]: 0.8 pM | H292 Cytotoxicity EC50 (pM) [6]: 7.2 pM

B7: TCE-1 (TROP2 T cell engager, anti-CD3 scFv wt, anti-TROP2 wt) (bispecific antibody)
light: DIQLTQSPSSLSASVGDRVSITCKASQDVSIAVAWYQQKPGKAPKLLIYSASYRYTGVPDRFSGSGSGTDFTLTISSLQPEDFAVYYCQQHYITPLTFGAGTKVEIKRTVAAPSVFIFPPSDEQLKSGTASVVCLLNNFYPREAKVQWKVDNALQSGNSQESVTEQDSKDSTYSLSSTLTLSKADYEKHKVYACEVTHQGLSSPVTKSFNRGEC
heavy: not shown
notes: Anti-CD3 scFv joined to the N-terminus of the anti-TROP2 Fab heavy chain; the heavy entry holds scFv, linker and Fab heavy chain; also called TCE-1 (wt)
EC50 [7]: 0.07 nM | EC50 [8]: 0.06 nM | EC50 [1]: 1.29 nM

B8: TCE-38 (bispecific antibody)
light: DIQLTQSPSSLSASVGDRVSITCKASQDVSIAVAWYQQKPGKAPKLLIYSASYRYTGVPDRFSGSGSGTDFTLTISSLQPEDFAVYYCQQHYITPLTFGAGTKVEIKRTVAAPSVFIFPPSDEQLKSGTASVVCLLNNFYPREAKVQWKVDNALQSGNSQESVTEQDSKDSTYSLSSTLTLSKADYEKHKVYACEVTHQGLSSPVTKSFNRGEC
heavy: not shown
CyTROP2 HEK293 EC50 (pM) [5]: 3.6 pM | HCT116 Cytotoxicity EC50 (pM) [6]: > 3000 pM

B9: TCE-35 (anti-CD3 scFv N30Q, I109V, G172A, V231A; anti-TROP2 wt) (bispecific antibody)
light: DIQLTQSPSSLSASVGDRVSITCKASQDVSIAVAWYQQKPGKAPKLLIYSASYRYTGVPDRFSGSGSGTDFTLTISSLQPEDFAVYYCQQHYITPLTFGAGTKVEIKRTVAAPSVFIFPPSDEQLKSGTASVVCLLNNFYPREAKVQWKVDNALQSGNSQESVTEQDSKDSTYSLSSTLTLSKADYEKHKVYACEVTHQGLSSPVTKSFNRGEC
heavy: not shown
notes: scFv on the Fab heavy chain
EC50 [9]: 0.171 nM

B10: TCE-8 (anti-CD3 scFv wt; anti-TROP2 D109A) (bispecific antibody)
light: DIQLTQSPSSLSASVGDRVSITCKASQDVSIAVAWYQQKPGKAPKLLIYSASYRYTGVPDRFSGSGSGTDFTLTISSLQPEDFAVYYCQQHYITPLTFGAGTKVEIKRTVAAPSVFIFPPSDEQLKSGTASVVCLLNNFYPREAKVQWKVDNALQSGNSQESVTEQDSKDSTYSLSSTLTLSKADYEKHKVYACEVTHQGLSSPVTKSFNRGEC
heavy: not shown
notes: scFv on the Fab heavy chain
EC50 [10]: 0.16 nM | EC50 [2]: 0.57 nM | EC50 [11]: 0.2 nM

B11: PC-8 (bispecific antibody)
light: GGVDFCGLYHWPICYQGGGGSGGLSGRSDAGSPLGLAGSGGSDIQLTQSPSSLSASVGDRVSITCKASQDVSIAVAWYQQKPGKAPKLLIYSASYRYTGVPDRFSGSGSGTDFTLTISSLQPEDFAVYYCQQHYITPLTFGAGTKVEIKRTVAAPSVFIFPPSDEQLKSGTASVVCLLNNFYPREAKVQWKVDNALQSGNSQESVTEQDSKDSTYSLSSTLTLSKADYEKHKVYACEVTHQGLSSPVTKSFNRGEC
heavy: not shown
notes: Masked polypeptide complex: anti-TROP2 D109A, anti-CD3 wt
EC50 [10]: 165 nM | EC50 [2]: 187 nM | EC50 [11]: 86 nM | CyTROP2 HEK293 EC50 (pM) [12]: 3450 pM | H292 Cytotoxicity EC50 (pM) [13]: 14600 pM | HCT116 Cytotoxicity EC50 (pM) [13]: > 100000 pM

B12: PC-30 (bispecific antibody)
light: GGVDFCGLYHWPICYQGGGGSGGLSGRSDAGSPLGLAGSGGSDIQLTQSPSSLSASVGDRVSITCKASQDVSIAVAWYQQKPGKAPKLLIYSASYRYTGVPDRFSGSGSGTDFTLTISSLQPEDFAVYYCQQHYITPLTFGAGTKVEIKRTVAAPSVFIFPPSDEQLKSGTASVVCLLNNFYPREAKVQWKVDNALQSGNSQESVTEQDSKDSTYSLSSTLTLSKADYEKHKVYACEVTHQGLSSPVTKSFNRGEC
heavy: not shown
notes: anti-TROP2 D109A
EC50 [10]: 151 nM
